Non-standard residues stand in square brackets, D forms with d. No end group written: not given here. *: point of attachment. DOTA = O=C(O)CN1CCN(CC(=O)O)CCN(CC(=O)*)CCN(CC(=O)O)CC1; βAla = NCCC(=O)O
What was measured:
Plectin-1 [1] = biological target: T1, Plectin-1 (Homo sapiens, UniProt Q15149); experiment: In vitro competition assay: 111In-tPTP versus unlabeled tPTP or ncPTP on L3.6 cells; assay type: binding; parameters: L3.6 cells were plated on a 96 well plate and incubated with 111In-tPTP and increasing log concentrations of tPTP or scrambled tetramer; endogenous in cells; host or cells: L3.6 pancreatic cancer cells; conditions: competition with 111In-labeled tPTP, 1 hr room temperature, read-out: Ki (inhibition dissociation constant)
T1 sequence (Q15149 whole entry): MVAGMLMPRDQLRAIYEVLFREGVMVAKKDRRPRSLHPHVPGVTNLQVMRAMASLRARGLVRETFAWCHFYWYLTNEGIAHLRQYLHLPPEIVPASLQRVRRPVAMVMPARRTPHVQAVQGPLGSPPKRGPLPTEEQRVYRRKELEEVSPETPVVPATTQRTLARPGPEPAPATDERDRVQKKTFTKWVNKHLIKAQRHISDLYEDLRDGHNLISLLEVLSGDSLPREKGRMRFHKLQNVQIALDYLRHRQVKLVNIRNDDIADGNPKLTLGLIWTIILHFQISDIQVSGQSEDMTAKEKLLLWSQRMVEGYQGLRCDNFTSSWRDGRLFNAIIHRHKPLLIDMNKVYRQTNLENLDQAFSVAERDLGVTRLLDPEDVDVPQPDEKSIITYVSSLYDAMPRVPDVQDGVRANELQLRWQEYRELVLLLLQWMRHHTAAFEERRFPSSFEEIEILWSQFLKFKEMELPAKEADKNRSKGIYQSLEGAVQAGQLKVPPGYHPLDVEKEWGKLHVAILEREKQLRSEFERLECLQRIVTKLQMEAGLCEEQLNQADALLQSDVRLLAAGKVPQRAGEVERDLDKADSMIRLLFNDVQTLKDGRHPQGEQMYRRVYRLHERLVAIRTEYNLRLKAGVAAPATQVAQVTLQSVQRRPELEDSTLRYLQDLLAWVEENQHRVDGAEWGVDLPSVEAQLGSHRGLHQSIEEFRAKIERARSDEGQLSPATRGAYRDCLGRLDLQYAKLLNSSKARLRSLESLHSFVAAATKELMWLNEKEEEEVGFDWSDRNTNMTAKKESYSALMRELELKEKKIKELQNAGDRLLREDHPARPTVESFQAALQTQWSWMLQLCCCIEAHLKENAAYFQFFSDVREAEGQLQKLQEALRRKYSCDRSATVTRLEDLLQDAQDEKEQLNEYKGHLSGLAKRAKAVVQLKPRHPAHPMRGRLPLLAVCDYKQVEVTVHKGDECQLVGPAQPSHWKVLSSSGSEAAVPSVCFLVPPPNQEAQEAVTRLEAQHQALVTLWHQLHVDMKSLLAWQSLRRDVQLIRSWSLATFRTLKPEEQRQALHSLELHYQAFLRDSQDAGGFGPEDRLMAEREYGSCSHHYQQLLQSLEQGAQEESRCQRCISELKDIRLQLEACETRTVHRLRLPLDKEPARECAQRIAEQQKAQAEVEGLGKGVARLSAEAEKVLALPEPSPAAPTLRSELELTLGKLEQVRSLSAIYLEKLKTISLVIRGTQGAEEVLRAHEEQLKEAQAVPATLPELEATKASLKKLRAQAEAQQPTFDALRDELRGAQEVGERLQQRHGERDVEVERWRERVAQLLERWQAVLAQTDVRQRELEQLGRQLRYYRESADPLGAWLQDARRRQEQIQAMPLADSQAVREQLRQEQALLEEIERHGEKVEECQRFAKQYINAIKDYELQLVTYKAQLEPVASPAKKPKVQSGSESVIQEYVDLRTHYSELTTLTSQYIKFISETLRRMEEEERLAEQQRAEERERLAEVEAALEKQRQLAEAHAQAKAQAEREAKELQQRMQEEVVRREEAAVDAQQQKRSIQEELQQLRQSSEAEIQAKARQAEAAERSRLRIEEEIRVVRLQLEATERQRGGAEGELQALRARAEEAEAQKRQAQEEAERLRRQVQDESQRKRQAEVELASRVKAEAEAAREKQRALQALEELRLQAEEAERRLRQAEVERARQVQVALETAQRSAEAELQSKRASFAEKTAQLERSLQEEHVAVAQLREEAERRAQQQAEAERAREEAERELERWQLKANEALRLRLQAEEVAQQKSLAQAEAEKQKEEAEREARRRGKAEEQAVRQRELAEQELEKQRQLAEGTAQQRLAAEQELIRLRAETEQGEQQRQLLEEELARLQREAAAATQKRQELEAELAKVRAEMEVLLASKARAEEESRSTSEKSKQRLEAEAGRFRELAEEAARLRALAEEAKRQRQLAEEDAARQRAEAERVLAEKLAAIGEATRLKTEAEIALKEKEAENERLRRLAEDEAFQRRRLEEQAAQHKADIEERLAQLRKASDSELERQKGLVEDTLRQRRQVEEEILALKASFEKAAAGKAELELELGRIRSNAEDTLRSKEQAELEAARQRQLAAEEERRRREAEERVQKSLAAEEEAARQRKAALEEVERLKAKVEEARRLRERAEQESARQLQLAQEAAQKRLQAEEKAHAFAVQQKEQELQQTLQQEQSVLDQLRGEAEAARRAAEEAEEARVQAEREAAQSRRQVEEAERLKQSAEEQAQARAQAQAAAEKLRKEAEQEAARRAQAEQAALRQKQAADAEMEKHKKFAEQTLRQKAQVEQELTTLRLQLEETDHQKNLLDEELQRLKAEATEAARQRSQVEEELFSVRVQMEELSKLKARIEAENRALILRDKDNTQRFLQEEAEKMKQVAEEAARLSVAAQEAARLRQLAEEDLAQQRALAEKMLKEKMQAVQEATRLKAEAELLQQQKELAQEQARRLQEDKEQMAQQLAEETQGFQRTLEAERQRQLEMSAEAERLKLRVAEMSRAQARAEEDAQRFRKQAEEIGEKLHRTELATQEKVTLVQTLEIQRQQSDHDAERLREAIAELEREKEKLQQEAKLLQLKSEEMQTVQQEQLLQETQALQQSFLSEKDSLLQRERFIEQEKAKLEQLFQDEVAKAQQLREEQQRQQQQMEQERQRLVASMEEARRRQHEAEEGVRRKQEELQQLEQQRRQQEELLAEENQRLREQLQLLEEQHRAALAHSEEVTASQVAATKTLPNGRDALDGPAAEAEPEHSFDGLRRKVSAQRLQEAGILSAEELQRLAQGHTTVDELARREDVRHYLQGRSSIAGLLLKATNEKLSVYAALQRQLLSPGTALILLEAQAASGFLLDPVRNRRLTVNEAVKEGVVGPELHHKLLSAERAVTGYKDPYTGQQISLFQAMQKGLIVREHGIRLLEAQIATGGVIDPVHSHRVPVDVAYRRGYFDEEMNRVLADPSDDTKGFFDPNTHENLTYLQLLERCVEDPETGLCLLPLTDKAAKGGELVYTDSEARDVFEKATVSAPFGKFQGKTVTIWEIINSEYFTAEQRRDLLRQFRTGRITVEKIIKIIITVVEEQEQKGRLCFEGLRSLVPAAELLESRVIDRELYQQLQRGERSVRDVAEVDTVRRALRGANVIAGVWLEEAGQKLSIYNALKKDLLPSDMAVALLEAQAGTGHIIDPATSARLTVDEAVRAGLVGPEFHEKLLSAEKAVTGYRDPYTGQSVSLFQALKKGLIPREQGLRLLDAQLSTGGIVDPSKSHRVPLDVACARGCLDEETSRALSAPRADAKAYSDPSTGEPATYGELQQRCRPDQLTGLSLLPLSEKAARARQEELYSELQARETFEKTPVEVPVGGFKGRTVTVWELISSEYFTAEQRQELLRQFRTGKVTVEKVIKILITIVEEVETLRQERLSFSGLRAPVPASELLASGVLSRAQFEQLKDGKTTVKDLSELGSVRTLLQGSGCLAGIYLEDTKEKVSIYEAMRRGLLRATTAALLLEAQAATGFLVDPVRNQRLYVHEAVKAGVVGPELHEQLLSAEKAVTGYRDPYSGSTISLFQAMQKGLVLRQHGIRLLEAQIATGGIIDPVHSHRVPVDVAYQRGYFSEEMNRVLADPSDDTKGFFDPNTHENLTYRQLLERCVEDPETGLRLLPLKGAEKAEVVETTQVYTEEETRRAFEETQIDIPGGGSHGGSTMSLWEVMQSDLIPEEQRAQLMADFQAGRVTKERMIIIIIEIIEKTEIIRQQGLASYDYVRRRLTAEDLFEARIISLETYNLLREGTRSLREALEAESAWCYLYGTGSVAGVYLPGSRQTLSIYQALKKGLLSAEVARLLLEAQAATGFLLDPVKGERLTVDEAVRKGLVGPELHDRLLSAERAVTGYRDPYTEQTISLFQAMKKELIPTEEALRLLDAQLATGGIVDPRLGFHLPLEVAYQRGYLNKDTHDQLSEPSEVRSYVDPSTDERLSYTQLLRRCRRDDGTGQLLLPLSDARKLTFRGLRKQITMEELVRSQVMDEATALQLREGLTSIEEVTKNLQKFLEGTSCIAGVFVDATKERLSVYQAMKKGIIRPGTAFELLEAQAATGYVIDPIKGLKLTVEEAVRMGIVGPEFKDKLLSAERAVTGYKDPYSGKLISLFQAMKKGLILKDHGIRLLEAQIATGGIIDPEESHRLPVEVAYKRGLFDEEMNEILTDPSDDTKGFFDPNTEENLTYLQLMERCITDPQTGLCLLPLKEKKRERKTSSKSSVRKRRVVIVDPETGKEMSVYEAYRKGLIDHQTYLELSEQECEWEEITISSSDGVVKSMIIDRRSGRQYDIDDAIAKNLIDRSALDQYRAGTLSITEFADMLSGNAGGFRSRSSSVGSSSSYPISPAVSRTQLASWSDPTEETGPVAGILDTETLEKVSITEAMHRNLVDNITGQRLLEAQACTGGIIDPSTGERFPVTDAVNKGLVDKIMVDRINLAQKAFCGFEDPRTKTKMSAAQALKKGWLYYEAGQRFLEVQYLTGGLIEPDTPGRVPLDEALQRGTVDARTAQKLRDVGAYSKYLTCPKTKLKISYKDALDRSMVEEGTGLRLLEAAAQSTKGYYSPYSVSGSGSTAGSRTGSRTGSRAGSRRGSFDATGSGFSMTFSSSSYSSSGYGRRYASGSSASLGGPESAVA

Plectin-1 [2] = biological target: T1, Plectin-1; experiment: Affinity of tetrameric versus monomeric plectin-1 targeted peptide; assay type: binding; parameters: L3.6 cells were plated on a 96 well plate and incubated with 111In-tPTP and increasing log concentrations of tPTP or scrambled tetramer; endogenous in cells; host or cells: L3.6 pancreatic cancer cells
[3] = test system: tumors from orthotopically implanted L3.6 cells; experiment: SPECT/CT in vivo imaging of orthotopic PDAC; conditions: labeled peptide
Description: Anesthesia (1%-2% isoflurane in oxygen) was delivered throughout the imaging. CT acquisition used 200 evenly spaced projections spanning 200 degrees over approximately 5 minutes. Mice are repositioned axially for pinhole SPECT scanning 60 evenly spaced projection views were obtained over 180 degrees using two gamma cameras simultaneously. The acquisition time was approximately 30 minutes. The two cameras were fitted with 1 mm diameter tungsten pinholes. […] The reconstructed SPECT voxel size was 0.65×0.65×0.65 mm on a 60×60×60 image matrix. All SPECT images were corrected for radioactivity decay but not for gamma ray attenuation.

Plectin-1 [4] = biological target: T1, Plectin-1; experiment: competition with 111In-tPTP on L3.6 cells, gamma counting

With “ncPTP-4(βAKHVMSKQGGS (PEG5000))KKKDOTAβA-NH2 (peptide [βAla]KHVMSKQGGS; chain Lys-Lys-Lys(DOTA)-{βAla-NH2}; not fully specified (some residues, C-terminus); also: tetramer: four chain-1 arms on lysine core, each arm's Ser joined via PEG5000 to the lysine core)” the Ki (Plectin-1 [1]) was 2.86 µM.

Molecule KTLLPTP [monomeric peptide] has an affinity (Plectin-1 [2]) of 160 nmol and a time before visualization [3] of 48 h.

B1: ncPTP-4(β… (PEG5000))KKKDOTAβA-NH2 (peptide)
peptide: [βAla]KHVMSKQGGS-PEG5000
chain: Lys-Lys-Lys
modifications: not fully specified (some residues, C-terminus); also: tetramer: four arms joined via PEG5000 to lysine core, attachment lysines not given here
B1 was tested, and the Ki (Plectin-1 [4]) was 2.86 µM.

B2: tetrameric plectin-1 targeted peptide (tPTP) complex, (β…(PEG5000))4 KKKKDOTAβA-NH2 (peptide)
peptide: [βAla]KTLLPTPGGS-PEG5000
chain: KKKK(DOTA)-{βAla-NH2}
modifications: not fully specified (some residues); also: branched core [(arm)2-Lys]2-Lys-Lys(DOTA): four arms, C-terminal Ser of each joined through PEG5000 to an amino group of the core
Work on B2 yielded a Ki (Plectin-1 [4]) of 0.83 µM.

— patent publication US9075059B2, “Compositions and methods for detecting plectin-1 as a biomarker for cancer” (University of Virginia Patent Foundation, priority 2009, dated 2015)
